Test results: patent publication US20260242478A1 (published 2026)
Where no end group is shown, it is not given here.

Assays:
[1] = target: T1, PSMA Fab (006 PSMA Fab); assay: phage binding ELISA; PSMA Fab wells pre-incubated with PSMA antigen as competitor, anti-M13 HRP detection
T1 construct: also called Anti-PSMA Fab
Experimental: (§1) Clonal phage were harvested as crude supernatants and screened via standard ELISAs. […] Prior to the addition of clonal phage. wells were incubated with blocking buffer and PSMA antigen or blocking buffer alone. Without washing or aspirating, clonal phage supernatants were then added to the wells and incubated for a short time. Wells were then washed followed by detection of bound phage using a horse radish conjugated anti-M13 antibody.

[2] = target: T1, PSMA Fab (006 PSMA Fab); assay: phage binding ELISA; biotinylated PSMA Fab on neutravidin plate, clonal phage supernatant, anti-M13 HRP detection;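 note: wells were preincubated with blocking buffer either containing PSMA antigen or without it before crude phage supernatant was added, briefly incubated, then washed prior to detection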
Experimental: as §1

[3] = target: T2, PSMA Fab (006 PSMA Fab); assay: clonal phage ELISA on captured PSMA Fab, wells pre-incubated with PSMA antigen as competitor
T2 construct: also called Anti-PSMA Fab; anti-PSMA Fab
Experimental: as §1

[4] = target: T2, PSMA Fab (006 PSMA Fab); assay: clonal phage ELISA on biotinylated PSMA Fab captured on neutravidin, anti-M13-HRP detection;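 note: crude clonal phage supernatants added to wells preincubated with PSMA antigen in blocking buffer or with blocking buffer alone, brief binding period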
Experimental: as §1

[5] = target: T3, PSMA Fab; assay: phage binding ELISA; biotinylated PSMA Fab on neutravidin plate, wells pre-incubated with PSMA antigen as competitor, clonal phage supernatant, anti-M13 HRP detection
T3 construct: also called Anti-PSMA Fab; 006 PSMA Fab
Experimental: as §1

[6] = target: T3, PSMA Fab; assay: phage binding ELISA; biotinylated PSMA Fab on neutravidin plate, clonal phage supernatant, anti-M13 HRP detection; blocking buffer alone;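 note: before phage were added, wells were preincubated with blocking buffer either containing PSMA antigen or without it, and phage were then added with no wash in between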
Experimental: as §1

Binder	Phage binding ELISA signal, Anti-PSMA Fab in presence of PSMA antigen [3]	Phage binding ELISA signal, Anti-PSMA Fab [4]	Phage binding ELISA signal, Anti-PSMA Fab in presence of PSMA [5]	Phage binding ELISA signal, Anti-PSMA Fab [6]	also measured
MVRLCEPEWMCTGF [Phage-3184]					Phage binding ELISA signal, Anti-PSMA Fab with PSMA antigen [1]: 0.116; Phage binding ELISA signal, Anti-PSMA Fab [2]: 2.01
LEALCVPRWMCEGF (peptide, not shown: large carriers, Clonal phage of the Peptide-180 library, tested as crude supernatant) [Phage-3189]	0.096	2			
LSPMCVPQWMCSGF (peptide, not shown: large carriers, Clonal phage of the Peptide-180 library, tested as crude supernatant) [Phage-3197]	0.119	1.99			
HDPACVPSWMCFGF (cysteine pairing not given here; also: fused to phage pIII, linker and order not given here, Peptide-180 library clone, tested as clonal phage supernatant; not shown: pIII filament protein of the bacteriophage, to which the peptide is fused) [Phage-3207]			0.0668	1.98	
VTVRCEPAWMCMGF (cysteine pairing not given here; also: fused to phage pIII, linker and order not given here, Peptide-180 library clone, tested as clonal phage supernatant; not shown: pIII filament protein of the bacteriophage, to which the peptide is fused) [Phage-3199]			0.0999	1.98	
DMRVCKPEWMCTGL (peptide, not shown: large carriers, Clonal phage of the Peptide-180 library, tested as crude supernatant) [Phage-3188]	0.109	2			
EVVMCRPLWMCSGF (peptide, not shown: large carriers, Clonal phage of the Peptide-180 library, tested as crude supernatant) [Phage-3192]	0.0925	2			
TVVKCVPEWMCEWL (cysteine pairing not given here; also: fused to phage pIII, linker and order not given here, Peptide-180 library clone, tested as clonal phage supernatant; not shown: pIII filament protein of the bacteriophage, to which the peptide is fused) [Phage-3206]			0.0606	1.98	
VEVRCVPAWMCTGF (peptide, not shown: large carriers, Clonal phage of the Peptide-180 library, tested as crude supernatant) [Phage-3196]	0.0941	1.99			
LERLCQPSWMCTGF (cysteine pairing not given here; also: fused to phage pIII, linker and order not given here, Peptide-180 library clone, tested as clonal phage supernatant; not shown: pIII filament protein of the bacteriophage, to which the peptide is fused) [Phage-3204]			0.0739	1.98	
EGAICKPEWMCKGF [Phage-3183]					Phage binding ELISA signal, Anti-PSMA Fab with PSMA antigen [1]: 0.0737; Phage binding ELISA signal, Anti-PSMA Fab [2]: 2.01
VVPLCIPQWMCAVF (cysteine pairing not given here; also: fused to phage pIII, linker and order not given here, Peptide-180 library clone, tested as clonal phage supernatant; not shown: pIII filament protein of the bacteriophage, to which the peptide is fused) [Phage-3201]			0.0757	1.98	
AAPMCIPAWMCHGF (peptide, not shown: large carriers, Clonal phage of the Peptide-180 library, tested as crude supernatant) [Phage-3187]	0.137	2			
HEHFCRPLWMCTGL (peptide, not shown: large carriers, Clonal phage of the Peptide-180 library, tested as crude supernatant) [Phage-3195]	0.0753	1.99			
VSELCRPAWMCHGF (peptide, not shown: large carriers, Clonal phage of the Peptide-180 library, tested as crude supernatant) [Phage-3186]	0.082	2			
QHWQCVPRWMCDGF (peptide, not shown: large carriers, Clonal phage of the Peptide-180 library, tested as crude supernatant) [Phage-3191]	0.103	2			
DMPLCIPAWMCAGF (peptide, not shown: large carriers, cysteine pairing not given here; also: fused to phage pIII, junction sequence not given here, Clonal phage of the Peptide-180 library, tested as crude supernatant) [Phage-3194]	0.0615	1.99			
ADLRCVPEWMCMGI (peptide, not shown: large carriers, Clonal phage of the Peptide-180 library, tested as crude supernatant) [Phage-3190]	0.0654	2			
VTPLCVPKWMCELF (cysteine pairing not given here; also: fused to phage pIII, linker and order not given here, Peptide-180 library clone, tested as clonal phage supernatant; not shown: pIII filament protein of the bacteriophage, to which the peptide is fused) [Phage-3200]			0.0878	1.98	
GEAVCIPRWMCDGF (peptide, not shown: large carriers, Clonal phage of the Peptide-180 library, tested as crude supernatant) [Phage-3193]	0.0937	1.99			
VVKICQPDWMCWGF (cysteine pairing not given here; also: fused to phage pIII, linker and order not given here, Peptide-180 library clone, tested as clonal phage supernatant; not shown: pIII filament protein of the bacteriophage, to which the peptide is fused) [Phage-3205]			0.0655	1.98	
VVVSCIPTWMCVGF (cysteine pairing not given here; also: fused to phage pIII, linker and order not given here, Peptide-180 library clone, tested as clonal phage supernatant; not shown: pIII filament protein of the bacteriophage, to which the peptide is fused) [Phage-3202]			0.103	1.98	
IQILCTPTWMCVGF [Phage-3182]					Phage binding ELISA signal, Anti-PSMA Fab with PSMA antigen [1]: 0.0781; Phage binding ELISA signal, Anti-PSMA Fab [2]: 2.01
IEKWCFPMWMCEGF (peptide, not shown: large carriers, cysteine pairing not given here; also: fused to phage pIII, junction sequence not given here, Clonal phage of the Peptide-180 library, tested as crude supernatant) [Phage-3185]	0.0806	2.01			
VSVRCEPEWMCMGF (cysteine pairing not given here; also: fused to phage pIII, linker and order not given here, Peptide-180 library clone, tested as clonal phage supernatant; not shown: pIII filament protein of the bacteriophage, to which the peptide is fused) [Phage-3203]			0.0741	1.98	
FDRVCKPEWMCNGL (peptide, not shown: large carriers, Clonal phage of the Peptide-180 library, tested as crude supernatant) [Phage-3198]	0.0655	1.99			
